{
  "source": "patent US20090318338",
  "tested_on": "RSK2",
  "sequence (chain, as listed by the source)": "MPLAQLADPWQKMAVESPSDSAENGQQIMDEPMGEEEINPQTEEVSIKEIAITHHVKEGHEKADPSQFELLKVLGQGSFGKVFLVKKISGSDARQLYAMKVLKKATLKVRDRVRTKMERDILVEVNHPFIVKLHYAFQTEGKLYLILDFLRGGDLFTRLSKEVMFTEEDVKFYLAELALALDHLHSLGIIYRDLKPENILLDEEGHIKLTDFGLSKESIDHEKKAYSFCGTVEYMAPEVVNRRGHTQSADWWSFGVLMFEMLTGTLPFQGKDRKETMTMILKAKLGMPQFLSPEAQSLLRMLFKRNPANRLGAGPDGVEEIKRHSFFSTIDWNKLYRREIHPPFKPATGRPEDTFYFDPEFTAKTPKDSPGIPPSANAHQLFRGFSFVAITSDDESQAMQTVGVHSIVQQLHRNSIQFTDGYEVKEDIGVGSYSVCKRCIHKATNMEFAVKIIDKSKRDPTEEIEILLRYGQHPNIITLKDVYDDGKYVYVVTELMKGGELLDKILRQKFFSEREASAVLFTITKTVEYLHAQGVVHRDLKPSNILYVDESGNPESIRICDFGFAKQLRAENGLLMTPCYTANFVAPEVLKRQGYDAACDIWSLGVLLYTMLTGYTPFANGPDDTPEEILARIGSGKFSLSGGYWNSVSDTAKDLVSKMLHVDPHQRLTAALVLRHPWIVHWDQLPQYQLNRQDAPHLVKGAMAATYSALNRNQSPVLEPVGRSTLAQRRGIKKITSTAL",
  "data": [
    {"substance": "WWP1", "values": [
      {"measurement": "RSK2 ubiquitination", "value": "WWP1 can promote low levels of RSK2 ubiquitination"}
    ]}
  ]
}
